Measured values from US20050043236A1 (published 2005).
Like-named read-outs stand apart in the source and are kept apart here.

Tests used:
human VEGF165 [1] = molecular target: T1, human VEGF165 (human, UniProt P15692-4 27-191); experiment: kinetic dissociation from hVEGF165, as described in WO/0075319
T1 construct: also called hVEGF165

human VEGF165 [2] = molecular target: T1, human VEGF165; experiment: half-life of dissociation of the trap-hVEGF165 complex, as described in WO/0075319
human VEGF165 [3] = molecular target: T1, human VEGF165; experiment: affinity determination for human VEGF-165 (method not named in Example 7)
human VEGF165 [4] = molecular target: T1, human VEGF165; experiment: affinity determination for human VEGF-165 (method not named in Example 7); second row for SEQ ID NO: 26
human VEGF165 [5] = molecular target: T1, human VEGF165

T1 sequence (P15692 other isoform, or with tags, fused parts or gaps limits assumed): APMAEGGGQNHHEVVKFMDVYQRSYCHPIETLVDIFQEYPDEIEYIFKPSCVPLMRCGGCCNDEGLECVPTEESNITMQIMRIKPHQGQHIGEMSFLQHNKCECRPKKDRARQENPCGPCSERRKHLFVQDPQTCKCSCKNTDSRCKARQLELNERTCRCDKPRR

Row | Binder | koff (human VEGF165 [1]) [s⁻¹] | T1/2 (human VEGF165 [2]) [h] | Kd (human VEGF165 [3]) [pM] | koff (human VEGF165 [3]) [s⁻¹] | kon (human VEGF165 [3]) [M⁻¹ s⁻¹] | Kd (human VEGF165 [4]) [pM] | koff (human VEGF165 [4]) [s⁻¹] | kon (human VEGF165 [4]) [M⁻¹ s⁻¹] | Kd (human VEGF165 [5]) [pM]
1 | VEGF mini-trap of SEQ ID NO:26 (receptor, Secreted from CHO K1 cells; Covalent dimer of about 64 kDa) SDTGRPFVEMYSEIPEIIHMTEGRELVIPCRVTSPNITVTLKKFPLDTLIPDGKRIIWDSRKGFIISNATYKEIGLLTCEATVNGHLYKTNYLTHRQTNTIIDVVLSPSHGIELSVGEKLVLNCTARTELNVGIDFNWEYPSSKHQHKKLVNRDLKTQSGSEMKKFLSTLTIDGVTRSDQGLYTCAASSGLMTKKNSTFVRVHEKDKTHTCPPC | – | – | 0.328 | 6.56e-06 | 2e+07 | 0.221 | 5.77e-06 | 2.61e+07 | –
2 | recombinant monomeric R1R2-myc myc his (receptor, C-terminal myc-myc-his tag is not in the letters., Monomer; The construct is named only, not described; also called R1R2-myc myc his monomer; not shown: myc-myc-his tag and any linker to it) SDTGRPFVEMYSEIPEIIHMTEGRELVIPCRVTSPNITVTLKKFPLDTLIPDGKRIIWDSRKGFIISNATYKEIGLLTCEATVNGHLYKTNYLTHRQTNTIIDVVLSPSHGIELSVGEKLVLNCTARTELNVGIDFNWEYPSSKHQHKKLVNRDLKTQSGSEMKKFLSTLTIDGVTRSDQGLYTCAASSGLMTKKNSTFVRVHEK | 0.00674 | 0.028 | – | – | – | – | – | – | ~1000

Second part, the binder after the results:

Row | koff (human VEGF165 [1]) [s⁻¹] | T1/2 (human VEGF165 [2]) [h] | Kd (human VEGF165 [3]) [pM] | koff (human VEGF165 [3]) [s⁻¹] | kon (human VEGF165 [3]) [M⁻¹ s⁻¹] | Kd (human VEGF165 [4]) [pM] | koff (human VEGF165 [4]) [s⁻¹] | kon (human VEGF165 [4]) [M⁻¹ s⁻¹] | Kd (human VEGF165 [5]) [pM] | Binder
3 | 4.93e-05 | 3.9 | – | – | – | – | – | – | – | uncleaved VEGF trap containing a thrombin cleavage site (Fc fusion) SDTGRPFVEMYSEIPEIIHMTEGRELVIPCRVTSPNITVTLKKFPLDTLIPDGKRIIWDSRKGFIISNATYKEIGLLTCEATVNGHLYKTNYLTHRQTNTIIDVVLSPSHGIELSVGEKLVLNCTARTELNVGIDFNWEYPSSKHQHKKLVNRDLKTQSGSEMKKFLSTLTIDGVTRSDQGLYTCAASSGLMTKKNSTFVRVHEKDKTHTCPPCLVPRGSPAPELLGGPSVFLFPPKPKDTLMISRTPEVTCVVVDVSHEDPEVKFNWYVDGVEVHNAKTKPREEQYNSTYRVVSVLTVLHQDWLNGKEYKCKVSNKALPAPIEKTISKAKGQPREPQVYTLPPSRDELTKNQVSLTCLVKGFYPSDIAVEWESNGQPENNYKTTPPVLDSDGSFFLYSKLTVDKSRWQQGNVFSCSVMHEALHNHYTQKSLSLSPGK
4 | 5.46e-05 | 3.53 | – | – | – | – | – | – | – | cleaved VEGF mini-trap (receptor, Product of thrombin digestion of the uncleaved VEGF trap; also called thrombin-cleaved dimeric VEGF mini-trap; truncated trap) SDTGRPFVEMYSEIPEIIHMTEGRELVIPCRVTSPNITVTLKKFPLDTLIPDGKRIIWDSRKGFIISNATYKEIGLLTCEATVNGHLYKTNYLTHRQTNTIIDVVLSPSHGIELSVGEKLVLNCTARTELNVGIDFNWEYPSSKHQHKKLVNRDLKTQSGSEMKKFLSTLTIDGVTRSDQGLYTCAASSGLMTKKNSTFVRVHEKDKTHTCPPCLVPRGS
